Molecular target: T1, CREB-GAL4 fusion molecule (UniProt P04386+P16220)
T1 construct: host or cells: HLR cell line (5x GAL4 element-luciferase reporter)
Test: In vivo kinase assay, CREB-GAL4 fusion in HLR cells
Type: cell-based
Details: 40 hours after transfection
Description: For in vivo kinase assay, activation domains of CREB or ATF2 transcription factors fused with the yeast GAL4 DNA binding domain (1-147 Amino Acids) constructs are used (Stratagene, PathDetect In Vivo Signal Transduction Pathway trans-reporting Systems). The HLR cell line that contains a 5× GAL4 DNA binding element and TATA box driving luciferase reporter is used per manufacturer's protocol (Stratagene). 10^4 HLR cells are split into each well of 96 well tissue culture plates. After 16 hours, cells are transfected with 100 ng of Creb-GAL4 or ATF2-GAL4 fusion constructs, 30 ng of Renilla luciferase control plasmid together with 100 ng of pCMVSPORT6, pCMVSPORT-CREAP1, pFC-PKA or pFC-MEKK (Stratagene) activator plasmids respectively. Transfection is done with Fugene6 reagent (Roche Molecular Biochemicals, Basel, Switzerland) according to the manufacturers manual. Forty hours after transfection, a Dual-Glo Luciferase assay (Promega) is conducted using the manufacturer's protocol.
As CREAP1 strongly activates CRE promoter transcription, we next investigated whether CREAP1 works through the CREB pathway. […]

T1 sequence (P04386+P16220 fused): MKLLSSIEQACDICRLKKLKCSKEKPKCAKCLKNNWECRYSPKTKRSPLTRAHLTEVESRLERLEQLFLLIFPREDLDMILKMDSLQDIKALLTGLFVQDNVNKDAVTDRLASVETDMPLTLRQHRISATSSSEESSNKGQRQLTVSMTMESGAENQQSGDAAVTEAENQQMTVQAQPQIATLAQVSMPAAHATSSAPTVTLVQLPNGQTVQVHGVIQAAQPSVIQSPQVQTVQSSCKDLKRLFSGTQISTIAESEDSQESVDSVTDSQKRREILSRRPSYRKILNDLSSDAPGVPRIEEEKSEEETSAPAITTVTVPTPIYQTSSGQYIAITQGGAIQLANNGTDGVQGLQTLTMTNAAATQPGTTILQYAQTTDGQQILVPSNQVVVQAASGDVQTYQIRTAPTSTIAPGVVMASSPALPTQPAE

B1: CREAP1: human CRE activating protein 1, 650 amino acids, SEQ ID NO 2; expressed from pCMVSPORT-CREAP1 (protein)
chain: MATSNNPRKFSEKIALHNQKQAEETAAFEEVMKDLSLTRAARLQLQKSQYLQLGPSRGQYYGGSLPNVNQIGSGTMDLPFQPSGFLGEALAAAPVSLTPFQSSGLDTSRTTRHHGLVDRVYRERGRLGSPHRRPLSVDKHGRQADSCPYGTMYLSPPADTSWRRTNSDSALHQSTMTPTQPESFSSGSQDVHQKRVLLLTVPGMEETTSEADKNLSKQAWDTKKTGSRPKSCEVPGINIFPSADQENTTALIPATHNTGGSLPDLTNIHFPSPLPTPLDPEEPTFPALSSSSSTGNLAANLTHLGIGGAGQGMSTPGSSPQHRPAGVSPLSLSTEARRQQASPTLSPLSPITQAVAMDALSLEQQLPYAFFTQAGSQQPPPQPQPPPPPPPASQQPPPPPPPQAPVRLPPGGPLLPSASLTRGPQPPPLAVTVPSSLPQSPPENPGQPSMGIDIASAPALQQYRTSAGSPANQSPTSPVSNQGFSPGSSPQHTSTLGSVFGDAYYEQQMAARQANALSHQLEQFNMMENAISSSSLYSPGSTLNYSQAAMMGLTGSHGSLPDSQQLGYASHSGIPNIILTVTGESPPSLSKELTSSLAGVGDVSFDSDSQFPLDELKIDPLTLDGLHMLNDPDMVLADPATEDTFRMDRL
modifications: human
  transactivation of the CREB-GAL4 fusion molecule on the GAL4 promoter: strongly stimulates

— patent publication US20070036810A1, “Cyclic amp response element activator proteins and uses related thereto” (priority 2003, published 2007)
